Results taken from article PMC8191756.

Assays:
UBC9 = UBC9 (UniProt P63279); assay: co-IP, Strep-ALKBH5 with Flag-UBC9; details: reference: wild type
SENP1 = SENP1 (UniProt Q9P0U3); assay: co-IP; details: reference: wild type

Substance	binding against the reference (UBC9; sites S325)	binding against the reference (SENP1; sites S325)	binding against the reference (UBC9; sites S87)	binding against the reference (SENP1; sites S87)
ALKBH5 (from UniProt Q6P6C2) S325A	weaker	stronger		
ALKBH5 (from UniProt Q6P6C2) S87A			weaker	stronger
